The source of these data is publication PMC11833123, “A bipartite bacterial virulence factor targets the complement system and neutrophil activation” (The EMBO Journal, 2025).

The target in experiment [1] is C0362, C-terminal part of TDE0362 with the Mac-like domain (205–647 aa) (Treponema denticola ATCC 35405) (UniProt Q73QT1). The experiment can be described thus: SEC; dimer fraction noted during SEC of purified C0362; column and buffer are not tied to this remark.
The target in experiment [2] is T1, GST-CXCR1 (recombinant, from E. coli) (UniProt P25024 1-350).
T1 construct: CXCR1 (Uniport entry P25024), full length, gene codon optimized and synthesized, cloned into pGEX-6P-1; also called CXCR1 from E.coli; recombinant GST-CXCR1; source: E. coli BL21, purified (Glutathione Agarose with 5% sarkosyl in the lysis buffer, SEC); not shown: GST, N-terminal, kept
T1 sequence: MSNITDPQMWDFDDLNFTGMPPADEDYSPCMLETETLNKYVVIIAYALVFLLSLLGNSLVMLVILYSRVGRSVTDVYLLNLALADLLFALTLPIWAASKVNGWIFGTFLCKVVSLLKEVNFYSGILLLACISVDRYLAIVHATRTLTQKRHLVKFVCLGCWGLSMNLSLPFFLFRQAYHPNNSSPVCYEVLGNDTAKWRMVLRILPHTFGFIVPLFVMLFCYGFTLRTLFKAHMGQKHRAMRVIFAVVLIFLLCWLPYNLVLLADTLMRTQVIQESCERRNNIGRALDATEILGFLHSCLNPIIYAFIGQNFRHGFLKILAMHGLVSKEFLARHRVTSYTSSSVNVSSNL
The experiment can be described thus: SPR; GST-CXCR1 coupled (EDC/NHS) to CM5 sensor chips, N0362 flowed over (0.05 or 0.1 µM to 3 µM), 25 °C, dPBS with 0.01% Tween 20, Reichert SR7500DC; kinetics globally fit to a one to two binding model, affinity model for saturation. As to conditions: both partners purified. On the technique in general: In SPR one partner is held on a chip, and binding of the other changes the refractive index at the surface.

Consider “C0362, C-terminal part of TDE0362 with the Mac-like domain (205–647 aa) (from UniProt Q73QT1 205-647) (enzyme)”, for which, in experiment [1], the fraction of the total material that was dimer was found to be 10%.

B1: N0362, the N-terminus of TDE0362 (23–204 aa) (domain or fragment)
chain: KNNLLTKTEKEKSGEIPVKNIILSPNKSEFSLEKNTAQTITVKIIPEKATNKALIYSSKHGDIASIDNTGLITAKKEGRTIITIEASNGVKKTIDVIVTPEPIPVTNIEFEEEPPAFLFIGDVYIFKAKAKPDEATNRKLEYTTMTSDVISVTNTELGTMKATKEGNAAITIRSASTPSVAK
modifications: Alexa Fluor 488 label (only in the immunofluorescence on cells)
notes: TDE0362 of Treponema denticola ATCC 35405 (647 aa pre-protein), residues 23-204 with both bacterial Ig-like domains Big_1 and Big_2; Cloned in pET100/D-TOPO, which encodes the N-terminal 6xHis-tag; The same construct was used unlabelled (pull-down, ELISA, SPR) and labelled with Alexa Fluor 488 (cells); also called recombinant N0362; His-tagged N0362; source: E. coli BL21-CodonPlus (DE3)-RIL, …
What is called Kd is the constant that tells how readily two partners part at equilibrium. The term koff denotes the rate constant with which the complex falls apart. As usually defined, the kon is the second-order rate constant of association. Consider B1, for which, in experiment [2], the Kd came out at 264 ± 2.3 nM, the koff turned out to be 0.000857 s⁻¹ and the kon was 4950 M⁻¹ s⁻¹.
